Laboratory results reported in article PMC10156788, “Molecular architecture of the Gαi-bound TRPC5 ion channel” (Nature Communications, 2023).

Assays:
[1] = biological target: T1, EGFP-tagged human TRPC5EM (amino acids 1 to 765) in lipid nanodiscs (human, UniProt Q9UL62 1-765); experiment: cell-based or functional assay
T1 sequence (looked up): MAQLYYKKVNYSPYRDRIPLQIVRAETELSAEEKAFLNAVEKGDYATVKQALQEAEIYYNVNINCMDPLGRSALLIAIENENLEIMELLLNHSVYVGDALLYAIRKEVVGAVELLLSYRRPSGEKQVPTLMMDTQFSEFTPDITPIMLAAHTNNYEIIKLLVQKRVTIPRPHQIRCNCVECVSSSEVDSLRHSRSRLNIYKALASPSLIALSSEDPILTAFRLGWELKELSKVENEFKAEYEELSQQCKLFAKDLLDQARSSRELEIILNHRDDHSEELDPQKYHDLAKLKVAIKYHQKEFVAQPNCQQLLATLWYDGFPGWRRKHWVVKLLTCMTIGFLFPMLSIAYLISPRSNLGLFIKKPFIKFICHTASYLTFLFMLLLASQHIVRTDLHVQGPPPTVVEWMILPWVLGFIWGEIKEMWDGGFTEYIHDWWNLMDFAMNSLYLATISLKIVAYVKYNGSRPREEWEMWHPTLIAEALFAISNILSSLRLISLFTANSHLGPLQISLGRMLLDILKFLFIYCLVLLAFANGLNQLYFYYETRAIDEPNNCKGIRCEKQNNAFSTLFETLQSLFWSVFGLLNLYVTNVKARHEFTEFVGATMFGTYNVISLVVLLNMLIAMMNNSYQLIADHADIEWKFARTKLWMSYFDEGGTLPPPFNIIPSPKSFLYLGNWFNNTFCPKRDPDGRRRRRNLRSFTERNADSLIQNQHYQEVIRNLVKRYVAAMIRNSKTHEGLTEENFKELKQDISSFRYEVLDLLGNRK

[2] = biological target: T1, EGFP-tagged human TRPC5EM (amino acids …); experiment: BLI; BLItz, AR2G biosensors; EGFP-tagged TRPC5 in lipid nanodiscs (500 nM) immobilised by NHS/EDC; GTP-activated Gαi3^Q204L flowed at 0.31-1.25 μM, 300 s association, 300 s dissociation; 20 mM HEPES-NaOH pH 8.0, 150 mM NaCl; fitted by specific binding with Hill slope; settings: both partners purified
[3] = biological target: T2, human TRPC5 (amino acids 1 to 765, TRPC5EM) in lipid nanodiscs, EGFP and Twin-StrepII-tag removed (human, UniProt Q9UL62 1-765); experiment: cryo-EM structure; TRPC5EM in MSP2N2/soybean lipid nanodiscs, alone or mixed with GTP-activated N-myristoylated Gαi3^Q204L at Gα:TRPC5 monomer = 6:1; Buffer A (50 mM Tris-HCl pH 8.0, 150 mM NaCl, 1 mM DTT) with 5 μM GTP; 2.5 mM CaCl2 added before vitrification; no PIP2; settings: both partners purified
T2 construct: transient receptor potential canonical 5 (TRPC5), human, amino acids 1 to 765; C-terminal loop region (residues 766-973) truncated; Tags removed with HRV-3C protease after the complex with Gαi3 was formed; residues of the HRV-3C site may be left at the C-terminus; Reconstituted in MSP2N2 nanodiscs; also called TRPC5_(Class1); TRPC5_(Class2); source: HEK293S GnTI- suspension cells (BacMam), …
T2 sequence (looked up): T1 sequence (looked up)

- fold increase in open probability (Po) by Gαi3 (14.6 μM against 0.07 μM) at physiological PIP2, excised inside-out patch [1]: ~7 fold
- Kd [2]: 530 nM
- stoichiometry N [3]: ≤ 4 Gαi3 per TRPC5 tetramer
B1: N-myristoylated human Gαi3^Q204L, GTP-activated (natural protein)
chain: TLSAEDKAAVERSKMIDRNLREDGEKAAKEVKLLLLGAGESGKSTIVKQMKIIHEDGYSEDECKQYKVVVYSNTIQSIIAIIRAMGRLKIDFGEAARADDARQLFVLAGSAEEGVMTPELAGVIKRLWRDGGVQACFSRSREYQLNDSASYYLNDLDRISQSNYIPTQQDVLRTRVKTTGIVETHFTFKDLYFKMFDVGGLRSERKKWIHCFEGVTAIIFCVALSDYDLVLAEDEEMNRMHESMKLFDSICNNKWFTETSIILFLNKKDLFEEKIKRSPLTICYPEYTGSNTYEEAAAYIQCQFEDLNRRKDTKEIYTHFTCATDTKNVQFVFDAVTDVIIKNNLKE
modifications: myristoylation at the N-terminal glycine
notes: hexa-histidine tag inserted between M119 and T120; Incubated with 1 mM GTP for 1 h at 30 °C before use; The His tag is internal and no cleavage is described; Myristoylation of the N-terminal glycine implies loss of the first methionine; also called myristoylated Gαi3^Q204L
